Test results reported in the RNAGym collection of RNA variant scans (doi:10.1073/pnas.2313332121).

B1: TPR t1 (parent)
chain: GACCAAUCUGCCCUCAGAGCUCGAGAACAUCUUCGGAUGCAGAGGAGGCAGGCUUCGGUGGCGCGAUAGCGCCAACGUCCUCAACCUCCAAUGCAUCCCACCACAUGAUGAUGCCUGAAGAGCCUUGGUUUUUUG

Variants of: B1
Test: polymerase ribozyme fitness, log enrichment relative to wild type (log ratio); higher = more active; in vitro selection for triplet polymerase activity
Procedure, shortened: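 Only genotypes with ≥10 input reads and ≥1 read per output were kept after Illumina sequencing of input and output libraries. These libraries were PCR-built, transcribed mutants of each subunit of a heterodimeric triplet polymerase ribozyme, each put through one triplicate in vitro selection round with frozen incubation at −7 °C, gel excision of extended constructs, streptavidin-bead capture and RT-PCR. Fitness is a logarithmic ratio of genotype enrichment to wild-type enrichment, from inverse-variance-weighted replicate averages, with the logarithm in base 2.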

| Variant | polymerase ribozyme fitness (log ratio) |
| --- | --- |
| C62U U96A | -0.822 |
| A66G C72U C80U C123A | -3.12 |
| G61U C79A C99A G120C | -6.8 |
| G61U A111G | 0.628 |
| G63U C114G G117U | -5.98 |
| C62A C115U | -2.53 |
| C64U G135C | 0.469 |
| C64U A83C A100C C101G U129G | -3.82 |
| C62G U106C U131A | -2.52 |
| G63A A74U A95U | -3.67 |
| C62U C72U U92C U96C | -2.18 |
| C64A C124A | -4.7 |
| G63C C124U | 0.611 |
| A66G G128C | -3.65 |
| C64G C114A | -6.24 |
| A66C C85A C86A | -2.7 |
| C62U G113C C124A U133A | -2.07 |
| C64A G69C A75U U87A U96A | -1.55 |
| C62A A68G C72U | -3.88 |
| G63A A121U | 0.59 |
| G63C G110A | -1.89 |

| Variant | polymerase ribozyme fitness (log ratio) |
| --- | --- |
| G61U G107A U112C G122A | -5.04 |
| C62U C89A C124A | 0.0858 |
| A66G U87A C99U A118U | -4.99 |
| A66C C85U C88A | -1.61 |
| C62U G128C U133C | -2.74 |
| G63A C70A A95C | -3.3 |
| C62U U112G C115A U126G | -2.54 |
| G63A C97U | -1.46 |
| C62U C115G U129A | -3.05 |
| C64G G77A A111G U116C | -6.18 |
| G61U G120A | 0.595 |
| C62U G69C | -3.19 |
| A66C A84C C123U U133G | -0.245 |
| C64U G117C | -2.58 |
| C64U U133A | -0.0271 |
| C64U U133G | -0.439 |
| C64U G110U | -0.774 |
| G63U G122A | -2.28 |
| G63C C101U C102U G120C | -2.17 |
| C64U C88G | -1.13 |
| G61U U133A | -0.172 |

| Variant | polymerase ribozyme fitness (log ratio) |
| --- | --- |
| C62U G128C | -3.37 |
| C62G C99U A121G | -4.31 |
| G61U U96C | 0.151 |
| C62G C115A | -1.81 |
| C62A U131A | -0.5 |
| A66C C82G | -2.06 |
| A66C C82A | -1.46 |
| G63U C85U G110U | -4.39 |
| C64U C101A | -1.22 |
| C62A A90G | -0.841 |
| C64A U78A G93A | -6.61 |
| C64G C79G G120A G135C | -5.74 |
| G63C A91U C114A A118G U132A | -4.5 |
| C62U C104U A108C | -6 |
| C62A C98U C123A | -2.16 |
| C62G U131A | -1.42 |
| C62U A95C G113U G135A | -3.24 |
| G63U G93U C124G | -0.616 |
| A66U C76U U106C A119G U126C U130A | -2.47 |
| G63C A100U G110A C115G | -6.05 |
| C64A U112G | -6.64 |

| Variant | polymerase ribozyme fitness (log ratio) |
| --- | --- |
| C64U U92A | -3.06 |
| C62A C101U C114U C124A | -3.63 |
| G63A C94A | -0.982 |
| C64U A74C A75U G110A | -1.89 |
| C64U C76G | -3.51 |
| G61U U87A | -0.452 |
| G63C G113A | -2.11 |
| G63C C89U C102U A111C C115U | -6.78 |
| C62G C73U A83G | -4.25 |
| G63A U112G | -1.1 |
| C64U U116A G120U | -1.79 |
| G65C U87A | -5.6 |
| C62A U131A G135A | -2.64 |
| G63A C123U | 0.883 |
| C62U A111U | -2.55 |
| G63U U92A U96A G113C | -3.99 |
| C64U C115U | -0.234 |
| G63A U106A U133G | -1.47 |
| G65U A66C | -4.3 |
| C62U C73U | -0.0195 |
| C64U C88A U96G U109C A121G | -6.55 |
